Results as given in patent EP0311108A2, “Anti-HIV active 3'-azido-2,6-diaminopurine-2',3'-dideoxyriboside” (Stichting REGA V.Z.W., priority 1987, dated 1989).

Tests used:
[1] = substrate: Nc1nc(N)c2ncn([C@@H]3O[C@H](CO)[C@@H](O)[C@@H]3O)c2n1; experiment: purified protein, by the assay type; conditions: other: substrate of ADA
[2] = substrate: [N-]=[N+]=N[C@H]1C[C@H](n2cnc3c(N)nc(N)nc32)O[C@@H]1CO; experiment: Deamination by adenosine deaminase (substrate kinetics); format: biochemical, beef; conditions: other: substrate of ADA
Text: Several ddDAPR analogues were examined for their sus­ceptibility to deamination by beef intestine adenosine de­aminase (ADA).

B1: beef intestine adenosine deaminase (ADA) (Bos taurus) (protein)
chain: MAQTPAFNKPKVELHVHLDGAIKPETILYYGRKRGIALPADTPEELQNIIGMDKPLSLPEFLAKFDYYMPAIAGCREAVKRIAYEFVEMKAKDGVVYVEVRYSPHLLANSKVEPIPWNQAEGDLTPDEVVSLVNQGLQEGERDFGVKVRSILCCMRHQPSWSSEVVELCKKYREQTVVAIDLAGDETIEGSSLFPGHVKAYAEAVKSGVHRTVHAGEVGSANVVKEAVDTLKTERLGHGYHTLEDATLYNRLRQENMHFEVCPWSSYLTGAWKPDTEHPVVRFKNDQVNYSLNTDDPLIFKSTLDTDYQMTKNEMGFTEEEFKRLNINAAKSSFLPEDEKKELLDLLYKAYGMPSPASAEQCL
notes: Kinetic properties of beef intestine adenosine deaminase; from tissue; host or cells: beef intestine
[1]
  Km: 83 µM
  Vmax: 5.9 µmole/mg protein/min
[2]
  Km: 11 µM
  Vmax: 40 µmole/mg protein/min
